Data reported in patent US20240228562A1, “NOVEL LIPOCALIN MUTEINS SPECIFIC FOR CONNECTIVE TISSUE GROWTH FACTOR (CTGF)” (PIERIS PHARMACEUTICALS GMBH, priority 2021, published 2024).

Legend:
human CTGF [1] = molecular target: T1, human CTGF (Homo sapiens, UniProt P29279); assay: SPR binding kinetics and affinity, human CTGF; settings: 25° C., 1:1 binding model
T1 construct: purchased Creative Biomart
Experimental: (§1) Surface plasmon resonance (SPR) was used to measure binding kinetics and affinity of the representative lipocalin muteins disclosed herein.
(§2) The binding of exemplary lipocalin muteins to human (Creative Biomart), cynomolgus, rat (R&D Systems) and mouse CTGF (Abbexa) was determined by SPR using a Biacore instrument (Cytiva, formerly GE Healthcare). Some targets were fused to a human IgG1 Fc tag, and captured via the anti-human IgG antibody kit, others were directly immobilized.
(§3) For some measurements, human CTGF with a human IgG1 Fc Tag or rat or murine CTGF without a tag were directly immobilized to a CM5 Chip. The carboxyl groups on the chip were activated using 1-ethyl-3-(3-dimethylaminopropyl)-carbodiimide (EDC) and N-hydroxysuccinimide (NHS). Subsequently, the targets at a concentration of 3-5 μg/mL in 10 mM sodium acetate (pH) 4.5 were applied at a flow rate of 10 μL/min until an immobilization level of 300-1100 resonance units was achieved. Residual non-reacted NHS-esters were blocked by passing a solution of 1 M ethanolamine across the surface. The reference channel was activated/deactivated. For the capture setting, targets with an IgG Fc Tag at 0.25-2.5 μg/mL in HBS-EP+ buffer were captured by the anti-human IgG-Fc antibody at the chip surface for 180 s at a flow rate of 10 μL/min.
(§4) The binding assay was carried out with a contact time of 180 s, a dissociation time of 900-3600 s and a flow rate of 30 μL/min. All measurements were performed at 25° C. […] For the directly immobilized targets, the same regeneration conditions were used. Prior to the protein measurements, three startup cycles were performed for conditioning purposes. Data were evaluated with Biacore Evaluation software. Double referencing was used and the 1:1 binding model was used to fit the raw data.

human CTGF [2] = molecular target: T2, human CTGF (Homo sapiens, UniProt P29279, H83D); assay: SPR binding kinetics and affinity, human CTGF; settings: 25° C., 1:1 binding model
T2 construct: purchased Creative Biomart
T2 sequence (P29279 with tags, fused parts or gaps H83D): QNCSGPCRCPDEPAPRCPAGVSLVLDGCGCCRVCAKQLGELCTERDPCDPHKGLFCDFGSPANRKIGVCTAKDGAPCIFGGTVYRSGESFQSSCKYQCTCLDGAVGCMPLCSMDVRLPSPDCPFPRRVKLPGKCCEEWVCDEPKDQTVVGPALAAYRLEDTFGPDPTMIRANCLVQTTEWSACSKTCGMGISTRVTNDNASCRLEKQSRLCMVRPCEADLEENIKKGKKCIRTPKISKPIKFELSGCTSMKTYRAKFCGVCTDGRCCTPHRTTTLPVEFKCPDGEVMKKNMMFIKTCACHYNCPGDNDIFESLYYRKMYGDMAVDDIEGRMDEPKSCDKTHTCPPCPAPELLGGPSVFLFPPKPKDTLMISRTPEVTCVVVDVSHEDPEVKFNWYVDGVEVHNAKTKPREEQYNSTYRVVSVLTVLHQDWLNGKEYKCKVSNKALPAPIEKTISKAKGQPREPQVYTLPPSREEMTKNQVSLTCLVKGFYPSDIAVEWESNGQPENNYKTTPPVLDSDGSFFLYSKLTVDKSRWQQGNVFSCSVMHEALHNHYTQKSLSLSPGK
Experimental: as §1, §2, §3, §4

Murine CTGF = molecular target: T3, Murine CTGF (Mus musculus, UniProt P29268); assay: SPR binding kinetics and affinity, murine CTGF; set-up: key to Murine CTGF kon / Murine CTGF koff / Murine CTGF KD: B binding without determination of kinetics constants; settings: 25° C., 1:1 binding model
T3 construct: purchased Abbexa
T3 sequence (P29268 26-348): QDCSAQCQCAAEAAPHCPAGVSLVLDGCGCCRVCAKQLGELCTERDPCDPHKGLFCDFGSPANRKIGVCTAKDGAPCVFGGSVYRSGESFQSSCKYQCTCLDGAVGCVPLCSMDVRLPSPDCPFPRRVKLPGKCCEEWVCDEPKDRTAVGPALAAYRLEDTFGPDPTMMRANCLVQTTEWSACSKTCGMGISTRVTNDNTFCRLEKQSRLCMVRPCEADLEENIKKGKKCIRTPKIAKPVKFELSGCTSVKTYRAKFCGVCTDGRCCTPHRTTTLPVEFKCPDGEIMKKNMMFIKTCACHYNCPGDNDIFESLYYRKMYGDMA
Experimental: as §1, §2, §3, §4
(§5) The values determined for kon, koff and the resulting equilibrium dissociation constant (KD) for exemplary lipocalin muteins are summarized in Table 4.

[3] = Thermal stability assessment by nanoDSC; type: physicochemical; settings: 1 mg/mL in PBS, scan 25-100° C. at 1° C./min; for TM: major transition
How it was run: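 CTGF-specific lipocalin muteins at 1 mg/mL in PBS scanned from 25 to 100° C at 1° C/min by capillary nano-DSC. Where several transitions occur, the Tm of the major unfolding event is reported, along with onset temperature. Some muteins were expressed in E. coli, others in CHO cells.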

Rat CTGF = molecular target: T4, Rat CTGF (Rattus norvegicus, UniProt Q9R1E9); assay: SPR binding kinetics and affinity, rat CTGF; set-up: key to Rat CTGF kon / Rat CTGF koff / Rat CTGF KD: B binding without determination of kinetics constants; settings: 25° C., 1:1 binding model
T4 construct: purchased R&D Systems
T4 sequence (Q9R1E9 25-347): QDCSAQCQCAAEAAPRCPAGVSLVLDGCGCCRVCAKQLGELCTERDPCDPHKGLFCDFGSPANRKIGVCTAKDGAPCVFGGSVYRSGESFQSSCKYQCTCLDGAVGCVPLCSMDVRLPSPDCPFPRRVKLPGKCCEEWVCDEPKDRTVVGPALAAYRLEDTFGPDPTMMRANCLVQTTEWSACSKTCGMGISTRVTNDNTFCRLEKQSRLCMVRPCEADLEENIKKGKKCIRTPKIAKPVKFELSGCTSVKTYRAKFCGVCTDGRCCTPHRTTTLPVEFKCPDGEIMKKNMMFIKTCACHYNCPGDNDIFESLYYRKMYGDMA
Experimental: as §1, §2, §3, §4, §5

cynomolgus CTGF = assay: SPR binding kinetics and affinity, cynomolgus CTGF; settings: 25° C., 1:1 binding model
Chain of cynomolgus CTGF (as listed by the source): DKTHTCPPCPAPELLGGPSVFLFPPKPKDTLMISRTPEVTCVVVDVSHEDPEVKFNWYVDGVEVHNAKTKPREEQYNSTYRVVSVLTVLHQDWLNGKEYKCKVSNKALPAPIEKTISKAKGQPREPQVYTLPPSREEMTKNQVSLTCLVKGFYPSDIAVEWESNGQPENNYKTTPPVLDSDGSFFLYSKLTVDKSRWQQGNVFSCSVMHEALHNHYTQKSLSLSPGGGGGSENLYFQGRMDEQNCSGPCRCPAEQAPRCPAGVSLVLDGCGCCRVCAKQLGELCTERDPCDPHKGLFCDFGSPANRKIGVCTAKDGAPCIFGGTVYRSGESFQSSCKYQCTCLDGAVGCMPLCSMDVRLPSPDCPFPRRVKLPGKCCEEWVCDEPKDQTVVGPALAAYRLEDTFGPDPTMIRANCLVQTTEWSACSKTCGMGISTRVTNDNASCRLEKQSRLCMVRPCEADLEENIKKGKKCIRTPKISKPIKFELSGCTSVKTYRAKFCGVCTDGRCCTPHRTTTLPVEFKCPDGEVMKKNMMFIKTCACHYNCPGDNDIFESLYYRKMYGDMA
Experimental: as §1, §2, §3, §4, §5

T1 sequence (P29279 with tags, fused parts or gaps H83D): as the sequence (P29279 with tags, fused parts or gaps H83D) above

B1: SEQ ID NO: 5: optimized CTGF-binding hNGAL lipocalin mutein (protein)
chain: QDSTSDLIPAPPLSKVPLQQNFQDNQFQGKWYVVGKAGNALREDKEPPKMWATIYELKEDKSYDVTHVHFLTKKCKYLIDTFVPGSQPGEFTIGAIKSGPGLTSPLVRVVSTNYNQHAMVFFKWVSQNREWFTITLYGRTKELTSELKENFIRFSKSLGLPENHIVFPVPIDQCIDG
modifications: lipocalin mutein
Human CTGF [1]
  human CTGF koff: 6.65e-05 s⁻¹
Human CTGF [2]
  human CTGF kon: 211000 M⁻¹ s⁻¹
Murine CTGF
  Murine CTGF KD: B
  Murine CTGF koff: B
  Murine CTGF kon: B
[3]
  ONSET MELTING: 52 °C
  TM: 66 °C
Rat CTGF
  Rat CTGF koff: 0.000362 s⁻¹
  Rat CTGF kon: 294000 M⁻¹ s⁻¹

B2: SEQ ID NO: 31: optimized CTGF-binding hNGAL lipocalin mutein (protein)
chain: QDSTSDLIPAPPLSKVPLQQNFQDNQFQGKWYVVGWAGNVKLREDKQPQKMSATIYELKEDKSYDVTEVVFEQKKCHYIIKTFVPGSQPGEFTAGDIKSPPGYTSSLVRVVSTNYNQHAMVFFKKVSQNREFFWITLYGRTKELTSELKENFIRFSKSLGLPENHIVFPVPIDQCIDG
modifications: lipocalin mutein
Human CTGF [1]
  human CTGF koff: 4.85e-05 s⁻¹
Human CTGF [2]
  human CTGF kon: 195000 M⁻¹ s⁻¹
Murine CTGF
  Murine CTGF koff: 0.000444 s⁻¹
  Murine CTGF kon: 281000 M⁻¹ s⁻¹
[3]
  ONSET MELTING: 59 °C
  TM: 75 °C
Cynomolgus CTGF
  cynomolgus CTGF koff: 7.31e-05 s⁻¹
  cynomolgus CTGF kon: 162000 M⁻¹ s⁻¹
Rat CTGF
  Rat CTGF koff: 0.000423 s⁻¹
  Rat CTGF kon: 223000 M⁻¹ s⁻¹

B3: SEQ ID NO: 36: optimized CTGF-binding hNGAL lipocalin mutein (protein)
chain: QDSTSDLIPAPPLSKVPLQQNFQDNQFQGKWYVVGWAGNVKLREDKQPAKMSATIYELKEDKSYDVTEVVFEQKKCHYIIKTFVPGSQPGEFTAGDIKSPPGYTSSLVRVVSTNYNQHAMVFFKKVGQNREFFWITLYGRTKELTSELKENFIRFSKSLGLPENHIVFPVPIDQCIDG
modifications: lipocalin mutein
Human CTGF [1]
  human CTGF koff: 6.95e-05 s⁻¹
Human CTGF [2]
  human CTGF kon: 165000 M⁻¹ s⁻¹
Murine CTGF
  Murine CTGF koff: 0.00052 s⁻¹
  Murine CTGF kon: 310000 M⁻¹ s⁻¹
[3]
  ONSET MELTING: 58 °C
  TM: 73 °C
Cynomolgus CTGF
  cynomolgus CTGF koff: 9.77e-05 s⁻¹
  cynomolgus CTGF kon: 141000 M⁻¹ s⁻¹

B4: SEQ ID NO: 34: optimized CTGF-binding hNGAL lipocalin mutein (protein)
chain: QDSTSDLIPAPPLSKVPLQQNFQDNQFQGKWYVVGWAGNVILREDKQPFKMSATIYELKEDKSYDVTEVVFEQKKCHYIIKTFVPGSQPGEFTLGDIKSPPGETSTLVRVVSTNYNQHAMVFFKKVSQNREFFWITLYGRTKELTSELKENFIRFSKSLGLPENHIVFPVPIDQCIDG
modifications: lipocalin mutein
Human CTGF [1]
  human CTGF koff: 0.000169 s⁻¹
Human CTGF [2]
  human CTGF kon: 150000 M⁻¹ s⁻¹
Murine CTGF
  Murine CTGF koff: 0.00286 s⁻¹
  Murine CTGF kon: 240000 M⁻¹ s⁻¹
[3]
  ONSET MELTING: 67 °C
  TM: 82 °C
Cynomolgus CTGF
  cynomolgus CTGF koff: 0.000238 s⁻¹
  cynomolgus CTGF kon: 139000 M⁻¹ s⁻¹

B5: SEQ ID NO: 35: optimized CTGF-binding hNGAL lipocalin mutein (protein)
chain: QDSTSDLIPAPPLSKVPLQQNFQDNQFQGKWYVVGWAGNVKLREDKQPLKMSATIYELKEDKSYDVTEVVFEQKKCHYIIKTFVPGSQPGEFTAGDIKSPPGYTSSLVRVVSTNYNQHAMVFFKKVSQNREFFWITLYGRTKELTSELKENFIRFSKSLGLPENHIVFPVPIDQCIDG
modifications: lipocalin mutein
Human CTGF [1]
  human CTGF koff: 5.94e-05 s⁻¹
Human CTGF [2]
  human CTGF kon: 108000 M⁻¹ s⁻¹
Murine CTGF
  Murine CTGF koff: 0.000287 s⁻¹
  Murine CTGF kon: 128000 M⁻¹ s⁻¹
[3]
  ONSET MELTING: 63 °C
  TM: 78 °C
Rat CTGF
  Rat CTGF koff: 0.000273 s⁻¹
  Rat CTGF kon: 193000 M⁻¹ s⁻¹

B6: SEQ ID NO: 6: optimized CTGF-binding hNGAL lipocalin mutein (protein)
chain: QDSTSDLIPAPPLSKVPLQQNFQDNQFQGKWYVVGRAGNNQLREDKSPPKMWATIYELKEDKSYDVTHVHFSTKKCRYIIDTFVPGSQPGEFTAGAIKSGPGLTSPLVRVVSTNYNQHAMVFFKWVTQNREWFTITLYGRTKELTSELKENFIRFSKSLGLPENHIVFPVPIDQCIDG
modifications: lipocalin mutein
Human CTGF [1]
  human CTGF koff: 0.000149 s⁻¹
Human CTGF [2]
  human CTGF kon: 290000 M⁻¹ s⁻¹
Murine CTGF
  Murine CTGF KD: B
  Murine CTGF koff: B
  Murine CTGF kon: B
[3]
  ONSET MELTING: 48 °C
  TM: 66 °C
Rat CTGF
  Rat CTGF KD: B
  Rat CTGF koff: B
  Rat CTGF kon: B
